According to patent publication US20130123349A1:
Where two headings read alike, the source gives them in different places.

Experiments:
[1] = biological target: T1, […] peptide, GPC-(GPP)5-[…]-(GPP)5-GPC-NH2, cross-linked
[2] = biological target: T1, […] peptide, …; remark: listed apart in the source
[3] = biological target: T2, GFOGER peptide, GPC(GPP)5GFOGER(GPP)5GPC, cross-linked; assay: SPR, Aegyptin over immobilized cross-linked GFOGER peptide, two-state model
[4] = biological target: T1, […] peptide, …; assay: SPR, Aegyptin over immobilized cross-linked RGQOGVMGFO peptide, two-state model
[5] = biological target: T2, GFOGER peptide, …; assay: SPR, Aegyptin over immobilized cross-linked GFOGER peptide, two-state model; Ka1
[6] = biological target: T2, GFOGER peptide, …; assay: SPR, Aegyptin over immobilized cross-linked GFOGER peptide, two-state model; Kd1

B1: recombinant Aegyptin, O01949 20-273 (protein)
chain: RPMPEDEEPVAEGGDDDASGESEGEEETTDDAGGDGGEEENEGEEHAGDKDAGGEDTGKEENTGHDDAGEEDAGEEDAGEEDAGEEDAGEEDAEKEEGEKEDAGDDAGSDDGEEDSTGGDEGEDNAEDSKGSEKNDPADTYRQVVALLDKDTKVDHIQSEYLRSALNNDLQSEVRVPVVEAIGRIGDYSKIQGCFKSMGKDVKKVISEEEKKFKSCMSKKKSEYQCSEDSFAAAKSKLSPITSKIKSCVSSKGRHHHHHH
Question: Which koff [1] does the source give for B1 here?
Answer: 0.013 s⁻¹

Question: And the kon [1]?
Answer: 61900 M⁻¹ s⁻¹

Question: What about the IC50 [2] of the same binder?
Answer: 300 nM

Question: What about the Kd [2] of the same binder?
Answer: 139 nM

Question: What about the Kd [3] of the same binder?
Answer: 2400 nM

Question: What about the Kd2 (two-state model) [3] of the same binder?
Answer: 0.00261 s⁻¹

Question: What about the second Ka of the two-state model [3] of the same binder?
Answer: 0.000366 M⁻¹ s⁻¹

Question: And the Kd [4]?
Answer: 139 nM

Question: And the Kd2 (two-state model) [4]?
Answer: 0.00194 s⁻¹

Question: And the second Ka of the two-state model [4]?
Answer: 0.000981 M⁻¹ s⁻¹

Question: What about the kon [5] of the same binder?
Answer: 406000 M⁻¹ s⁻¹

Question: What about the koff [6] of the same binder?
Answer: 0.943 s⁻¹
